Data as given in US20250115677A1, “Anti-CEA Antibody Drug Conjugates and Methods of Use” (BeiGene Switzerland GmbH, priority 2022, published 2025).
Like-named read-outs stand apart in the source and are kept apart here.

Legend:
[1] = tested on: MKN45 cells; assay: Payload sensitivity of MKN45 cells; type: cell-based, human
Protocol: At Day 0, cells were harvested with 0.25% trypsin-EDTA, plated at 5,000 cells/well in 96-well plates (655090, Greiner), and incubated at 37° C., 5% CO2 overnight. At Day 1, payload compounds were added (5× dilution) into plates. Cell and compound mixtures were incubated at 37° C., 5% CO2 for 6 days. Survival cell signaling was collected at Day 6 with 100 μL of detection reagent (G7573, Promega®); signal was read by Tecan Spark®. Data were analyzed by GraphPad Prism 9.0.0. All killing concentrations were duplicated or triplicated (Table 21 and FIG. 16). “SABC” refers to specific antibody binding capacity.

[2] = target: T1, chimeric construct (CHIM) (human); assay: SPR (BIAcore T-200); antibody captured on anti-human IgG chip, CHIM flowed (1.37-333 nM)
T1 construct: CEACAM6 AA 1-273 joined to the membrane-peripheral region containing domain B3 of CEA (AA 596-687), C-terminal 6xHis; also called chimeric CEA
T1 chain: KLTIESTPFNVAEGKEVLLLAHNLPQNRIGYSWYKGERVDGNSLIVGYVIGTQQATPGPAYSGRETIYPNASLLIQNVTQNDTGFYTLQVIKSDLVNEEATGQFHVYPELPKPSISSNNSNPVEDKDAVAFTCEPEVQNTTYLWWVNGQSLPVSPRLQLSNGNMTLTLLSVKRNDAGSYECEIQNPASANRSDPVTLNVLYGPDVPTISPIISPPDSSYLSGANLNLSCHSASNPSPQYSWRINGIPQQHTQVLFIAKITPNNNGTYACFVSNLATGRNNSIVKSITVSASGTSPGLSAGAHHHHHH
Protocol: For this experiment, anti-human IgG (Fc) antibody was immobilized on an activated CM5 biosensor chip (Cat. No. BR100839, GE Life Sciences). Anti-CEA antibodies were flowed over the chip surface and captured by anti-human Fab antibody. […] For flow cytometry, CEA-expressing cells (10′ cells/well) were incubated with various concentrations of purified affinity-matured antibodies, followed by binding with Alexa Fluro-647-labeled anti-hu IgG Fc antibody (Cat. No. 409320, BioLegend, USA). Cell fluorescence was quantified using a flow cytometer (Guava easyCyte™ 8HT, Merck-Millipore, USA). The equilibrium dissociation constant (KD) was calculated as the ratio koff/kₒₙ.

[3] = target: T2, CHIM (Homo sapiens, UniProt P06731, A174T/A211G/A239V/A261S/A267P/C12H/D173N/E253A/E283V/F203L/F272R/F277P/F63I/H123Q/H61N/H9C/I100T/I112V/I113T/I13V/I230T/I80V/INS244IISP/K155N/K214E/L18V/L245P/L62R/N182G/N204S/N246D/N288K/P266S/P287A/Q16K/Q78L/R139H/R17E/R198M/R224N/R250L/R77S/S228P/S280H/T171V/T206K/T210A/T217I/T247S/T276I/V221A/V273I/V291P/V55A/W11L); assay: SPR affinity comparison of affinity matured humanized BGA7592 variants on CHIM; type: binding; conditions: Table 9, SPR on CHIM
T2 construct: CEACAM6 N-terminal part (fusion partner); 6xHis (C); made in house; host or cells: HEK293-based mammalian cell expression system
T2 sequence (P06731 with tags, fused parts or gaps H9C/W11L/C12H/I13V/Q16K/R17E/L18V/V55A/H61N/L62R/F63I/R77S/Q78L/I80V/I100T/I112V/I113T/H123Q/R139H/K155N/T171V/D173N/A174T/N182G/R198M/F203L/N204S/T206K/T210A/A211G/K214E/T217I/V221A/R224N/S228P/I230T/A239V/INS244IISP/L245P/N246D/T247S/R250L/E253A/A261S/P266S/A267P/F272R/V273I/T276I/F277P/S280H/E283V/P287A/N288K/V291P): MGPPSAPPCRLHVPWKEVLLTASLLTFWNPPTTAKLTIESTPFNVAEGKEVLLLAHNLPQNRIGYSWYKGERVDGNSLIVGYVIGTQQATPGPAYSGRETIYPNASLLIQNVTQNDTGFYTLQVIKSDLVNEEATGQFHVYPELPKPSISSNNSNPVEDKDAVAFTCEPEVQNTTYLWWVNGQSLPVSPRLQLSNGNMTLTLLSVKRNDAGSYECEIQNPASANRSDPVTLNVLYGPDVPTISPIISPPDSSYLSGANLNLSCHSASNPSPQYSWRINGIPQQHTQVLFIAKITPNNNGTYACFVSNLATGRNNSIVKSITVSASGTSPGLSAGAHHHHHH
Protocol: (§1) Affinity comparison of BGA7592-1F (BGA5366) and other affinity matured clones was made by SPR assay (Table 9) using BIAcore™ T-200 (GE Life Sciences) and flow cytometry (FIG. 7). For this experiment, anti-human IgG (Fc) antibody was immobilized on an activated CM5 biosensor chip (Cat. No. BR100839, GE Life Sciences). Anti-CEA antibodies were flowed over the chip surface and captured by anti-human Fab antibody. Then a serial dilution (1.37 nM to 333 nM) of CHIM was flowed over the chip surface and changes in surface plasmon resonance signals were analyzed to calculate the association rates (kon) and dissociation rates (koff) by using the one-to-one Langmuir binding model (BIA Evaluation Software, GE Life Sciences). For flow cytometry, CEA-expressing cells (10′ cells/well) were incubated with various concentrations of purified affinity-matured antibodies, followed by binding with Alexa Fluro-647-labeled anti-hu IgG Fc antibody (Cat. No. 409320, BioLegend, USA). Cell fluorescence was quantified using a flow cytometer (Guava easyCyte™ 8HT, Merck-Millipore, USA). The equilibrium dissociation constant (KD) was calculated as the ratio koff/kon.

[4] = target: T3, huCEA surface protein (LOVO cells) (Homo sapiens, UniProt P06731); assay: Flow cytometry binding of affinity matured humanized BGA7592 variants to LOVO cells
T3 construct: host or cells: LOVO
T3 sequence (P06731 35-676): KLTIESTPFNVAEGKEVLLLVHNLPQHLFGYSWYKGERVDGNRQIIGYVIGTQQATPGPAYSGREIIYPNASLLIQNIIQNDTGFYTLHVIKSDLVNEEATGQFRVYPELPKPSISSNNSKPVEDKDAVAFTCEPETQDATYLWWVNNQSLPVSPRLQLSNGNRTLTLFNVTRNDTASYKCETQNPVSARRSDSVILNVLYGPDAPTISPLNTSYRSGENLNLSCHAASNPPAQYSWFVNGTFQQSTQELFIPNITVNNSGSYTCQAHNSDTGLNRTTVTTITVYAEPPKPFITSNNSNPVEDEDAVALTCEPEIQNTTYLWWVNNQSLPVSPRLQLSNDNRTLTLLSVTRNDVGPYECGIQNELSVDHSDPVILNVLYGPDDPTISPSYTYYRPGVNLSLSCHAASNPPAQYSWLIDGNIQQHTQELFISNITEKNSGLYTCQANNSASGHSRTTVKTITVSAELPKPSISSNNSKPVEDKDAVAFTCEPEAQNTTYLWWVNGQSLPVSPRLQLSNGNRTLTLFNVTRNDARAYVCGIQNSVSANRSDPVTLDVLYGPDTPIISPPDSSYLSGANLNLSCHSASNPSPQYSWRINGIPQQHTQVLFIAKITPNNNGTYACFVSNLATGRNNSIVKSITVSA
Protocol: as §1

[5] = target: T1, chimeric construct (CHIM); assay: SPR; binding to CHIM
[6] = target: T2, CHIM; assay: SPR affinity comparison of affinity matured humanized BGA7592 variants on CHIM; type: binding

COc1cc2cc(c1Cl)N(C)C(=O)C[C@H](OC(=O)[C@H](C)N(C)C(=O)CCC(C)(C)S)[C@]1(C)O[C@H]1[C@H](C)[C@@H]1C[C@@](O)(NC(=O)O1)[C@H](OC)/C=C/C=C(\C)C2 [P1, DM4]
Emax ([1]; MKN45, 6 days): 97.6
EC50 ([1]; MKN45, 6 days, read-out: EC50): 1.16 nM

CC[C@@]1(O)C(=O)OCc2c1cc1n(c2=O)Cc2c-1nc1cc(F)c(C)c3c1c2[C@@H](NC(=O)C(C)(C)CO)CC3 [P3, N-((1S,9S)-9-ethyl-5-fluoro-9-hydroxy-4-methyl-10,13-dioxo-2,3,9,10,13,15-hexahydro-1H,12H-benz′[d′]pyrano[3′,4′:6,7]indolizino[1,2-b]quinolin-1-yl)-3-hydroxy-2,2-dimethylpropanamide]
EC50 ([1]; Homo sapiens, MKN-45, MKN45, 6 days, read-out: EC50): 0.89 nM
Emax ([1]; Homo sapiens, MKN-45, MKN45, 6 days, read-out: Emax): 97%

CC[C@@]1(O)C(=O)OCc2c1cc1n(c2=O)Cc2c-1nc1cc(F)c(C)c3c1c2[C@@H](NC(=O)CO)CC3 [P2, DXD]
EC50 ([1]; Homo sapiens, MKN-45, […]): 2.08 nM
Emax ([1]; Homo sapiens, MKN-45, […]): 98.1%

B1: BGA7592-1F (antibody, human IgG1, V domains shown)
VH: QVQLVQSGAEVKKPGASVKVSCKASGYIFTSYWLHWVRQAPGQGLEWIGYINPQTGYTSYAQKFQGRVTMTRDTSTSTVYMELSSLRSEDTAVYYCAREYGNYNYPLDYWGQGTLVTVSS
VL: DIQMTQSPSSLSASVGDRVTITCRASENIYGYLAWYQQKPGKVPKLLIYNAKNLVEGVPSRFSGSGSGTDFTLTISSLQPEDVATYYCQHHYGTPYTFGQGTKVEIK
notes: BGA7592-1 with N54Q, N59S, S61A in VH; human IgG1 wild type / kappa format; also called BGA5366
Kd [2]: 790 nM
koff [2]: 0.0015 s⁻¹
kon [2]: 1900 M⁻¹ s⁻¹

B2: BGA7592-1F-ph-L (BGA3676): affinity matured clone of BGA7592-1F, "(SEQ ID NO:95)", "improved affinities to huCEA surface protein" (protein)
chain: DIQMTQSPSSLSASVGDRVTITCRASENQYGYLAWYQQKPGKVPKLLIYNFKNLVEGVPSRFSGSGSGTDFTLTISSLQPEDVATYYCQHHLGTPYTFGQGTKVEIK
modifications: Synthetic: BGA7592-1F-ph-L VL
Ka [3]: 6700 M⁻¹ s⁻¹
Rmax [3]: 184 RU
affinities to huCEA surface protein [4]: improved affinities

B3: BGA7592-1F (BGA5366): "BGA7592-1F (also described herein as BGA5366)"; humanized anti-CEA antibody, parent of the affinity matured clones (antibody, V domains shown)
VH: QVQLVQSGAEVKKPGASVKVSCKASGYIFTSYWLHWVRQAPGQGLEWIGYINPQTGYTSYAQKFQGRVTMTRDTSTSTVYMELSSLRSEDTAVYYCAREYGNYNYPLDYWGQGTLVTVSS
VL: DIQMTQSPSSLSASVGDRVTITCRASENIYGYLAWYQQKPGKVPKLLIYNAKNLVEGVPSRFSGSGSGTDFTLTISSLQPEDVATYYCQHHYGTPYTFGQGTKVEIK
Ka [3]: 1900 M⁻¹ s⁻¹
Rmax [3]: 367 RU

B4: BGA7592-1F-ph-M (antibody, human IgG1, V domains shown)
VH: QVQLVQSGAEVKKPGASVKVSCKASGYIFTSYWLHWVRQAPGQGLEWIGYINPQTGYTSYAQKFQGRVTMTRDTSTSTVYMELSSLRSEDTAVYYCAREYGNYNYPLDYWGQGTLVTVSS
VL: DIQMTQSPSSLSASVGDRVTITCRASENQYGYLAWYQQKPGKVPKLLIYNTKNLVEGVPSRFSGSGSGTDFTLTISSLQPEDVATYYCQHHLGTPYTFGQGTKVEIK
notes: human IgG1/kappa; also called BGA2433
Kd [5]: 12.6 nM
koff [5]: 0.000248 s⁻¹
kon [5]: 19700 M⁻¹ s⁻¹
Kd [2]: 99 nM
koff [2]: 0.00025 s⁻¹
kon [2]: 2500 M⁻¹ s⁻¹

B5: BGA7592-1F-ph-L (antibody, human IgG1, V domains shown)
VH: QVQLVQSGAEVKKPGASVKVSCKASGYIFTSYWLHWVRQAPGQGLEWIGYINPQTGYTSYAQKFQGRVTMTRDTSTSTVYMELSSLRSEDTAVYYCAREYGNYNYPLDYWGQGTLVTVSS
VL: DIQMTQSPSSLSASVGDRVTITCRASENQYGYLAWYQQKPGKVPKLLIYNFKNLVEGVPSRFSGSGSGTDFTLTISSLQPEDVATYYCQHHLGTPYTFGQGTKVEIK
notes: human IgG1/kappa; also called BGA3676
Kd [2]: 46 nM
koff [2]: 0.0003 s⁻¹
kon [2]: 6700 M⁻¹ s⁻¹

B6: BGA8179 (antibody, human IgG1, V domains shown)
VH: QVQLVQSGAEVKKPGASVKVSCKASGYIFTSYYLHWVRQAPGQGLEWIGYINPQTGYTSYAQKFQGRVTMTRDTSTSTVYMELSSLRSEDTAVYYCAREYGNYNYPLDYWGQGTLVTVSS
VL: DIQMTQSPSSLSASVGDRVTITCRASENQYGYLAWYQQKPGKVPKLLIYNTKNLVEGVPSRFSGSGSGTDFTLTISSLQPEDVATYYCQHHLGTPYTFGQGTKVEIK
notes: Built on the BGA7592-1F-ph-M (BGA2433) template; human IgG1/kappa
Kd [5]: 14.2 nM
koff [5]: 0.000282 s⁻¹
kon [5]: 19900 M⁻¹ s⁻¹
binding activities compared to BGA7592-1F-ph-F (BGA9521) [6]: improved binding activities
Ka ([6]; Table 11, SPR to CHIM): 19900 M⁻¹ s⁻¹
Rmax ([6]; Table 11, SPR to CHIM): 129.1 RU
